Measurements from patent US20160222395.

Experiments:
[1] = tested on: ALS2_T1 TALE nuclease left subunit (synthetic construct); test: cell_activity; details: yeast beta-galactosidase recombination assay, 37 C, as pair with right subunit; 0.86 (0.02) at 30 C; also cleaves in N. benthamiana leaves (T7EI)
[2] = tested on: ALS2_T1 TALE nuclease right subunit (synthetic construct); test: cell_activity; details: yeast beta-galactosidase recombination assay, 37 C, as pair with left subunit; 0.86 (0.02) at 30 C; also cleaves in N. benthamiana leaves (T7EI)

## TAGCTTGTTCCACATTT (double strand) [ALS2_T1 left target half-site]
[1]
  activity (relative to I-SceI (max 1.0)): 0.97

## ACAGTACGACCCAGTCT (double strand) [ALS2_T1 right target half-site]
[2]
  activity (relative to I-SceI (max 1.0)): 0.97
